{"source": "patent CN110156894A", "about": "(JIANGSU NUOMAIBO BIOMEDICAL TECH CO LTD, dated 2019)", "key": {"重组TEM8蛋白(义翘神州) [1]": {"target": "T1, 重组TEM8蛋白(义翘神州) (human, UniProt Q9H6X2 33-321, limits assumed)", "T1 construct": "also called TEM8重组蛋白; recombinant TEM8 protein (Sino Biological)", "T1 sequence (looked up)": "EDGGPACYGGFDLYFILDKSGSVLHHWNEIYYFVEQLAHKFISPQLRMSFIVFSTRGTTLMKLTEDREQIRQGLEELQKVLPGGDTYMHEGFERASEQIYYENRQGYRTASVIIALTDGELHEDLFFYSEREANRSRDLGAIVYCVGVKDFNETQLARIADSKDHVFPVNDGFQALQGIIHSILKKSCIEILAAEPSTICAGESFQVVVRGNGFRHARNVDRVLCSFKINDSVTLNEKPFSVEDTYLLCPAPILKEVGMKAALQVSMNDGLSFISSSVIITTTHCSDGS", "experiment": "ELISA on plate-bound TEM8 protein, method as in Example 2"}, "TEM8 on TEM8过表达细胞 [2]": {"target": "T2, TEM8 on TEM8过表达细胞 (UniProt Q9H6X2 33-564, limits assumed)", "T2 construct": "whole, on cells; One molecule is used for cell-surface TEM8 on both cell lines; the cell line is named under assay; also called TEM8稳定过表达细胞株 (CHO-K1); TEM8过表细胞", "experiment": "cell-based ELISA on HCT116/TEM8 cells"}, "TEM8 on TEM8过表达细胞 [3]": {"target": "T2, TEM8 on TEM8过表达细胞", "experiment": "cell-based assay on TEM8 overexpressing cells, anti-human-IgG-Eu fluorescence"}, "重组TEM8蛋白(义翘神州) [4]": {"target": "T1, 重组TEM8蛋白(义翘神州)", "experiment": "ELISA, antibody on plate-bound TEM8 protein, anti-human IgG-HRP, OD450"}}, "data": [{"binder": "HUT104 (antibody, human IgG1, kappa, V domains shown, also called TEM8抗体HUT104; 单克隆抗体HUT104) VH: EVQLQESGPGLVKPSETLSLTCTVTGDSISSDYWNWVRQAPGQRLEWMGYISYSGNTYTNPSLKSRITINRDTSKNQFSLQLNSVTPEDTAVYYCARYKTITSAFDVWGQGTTVTVSS VL: EIVMTQSPATLSVSPGERATLSCRASQNIRDFLHWYQQKPGQAPRLLIYYASQSISGIPARFSGSGSGTDFTLTISSLEPEDFAVYYCQNGHSFPYTFGGGTKVEIKR", "values": [{"measurement": "EC50", "setting": "重组TEM8蛋白(义翘神州) [1]", "value": 0.00176, "unit": "µg/mL"}, {"measurement": "EC50", "setting": "TEM8 on TEM8过表达细胞 [2]", "value": 0.128, "unit": "µg/mL"}, {"measurement": "EC50", "setting": "TEM8 on TEM8过表达细胞 [3]", "value": 0.105, "unit": "µg/mL"}, {"measurement": "EC50", "setting": "重组TEM8蛋白(义翘神州) [4]", "value": 0.00317, "unit": "µg/mL"}]}, {"binder": "HUT105 (antibody, human IgG1, kappa, V domains shown, also called TEM8抗体; 单克隆抗体HUT105) VH: EVQLQESGPGLVKPSETLSLTCTVTGDSISSDYWNWVRQAPGQRLEWMGYISYSGNTYTNPSLKSRITINRDTSKNQFSLQLNSVTPEDTAVYYCARYKTITSMFDVWGQGTTVTVSS VL: EIVMTQSPATLSVSPGERATLSCRASQNIRDFLHWYQQKPGQAPRLLIYYASQSISGIPARFSGSGSGTDFTLTISSLEPEDFAVYYCQNGHSFPYTFGGGTKVEIKR", "values": [{"measurement": "EC50", "setting": "TEM8 on TEM8过表达细胞 [3]", "value": 0.113, "unit": "µg/mL"}, {"measurement": "EC50", "setting": "重组TEM8蛋白(义翘神州) [4]", "value": 0.00357, "unit": "µg/mL"}]}, {"binder": "HUT103 (antibody, human IgG1, kappa, V domains shown, also called TEM8抗体; 单克隆抗体HUT103) VH: EVQLQESGPGLVKPSETLSLTCTVTGDSISSDYWNWVRQAPGQRLEWMGYISYSGNTYTNPSLKSRITINRDTSKNQFSLQLNSVTPEDTAVYYCARYKTITSVLDVWGQGTTVTVSS VL: EIVMTQSPATLSVSPGERATLSCRASQNIRDFLHWYQQKPGQAPRLLIYYASQSISGIPARFSGSGSGTDFTLTISSLEPEDFAVYYCQNGHSFPYTFGGGTKVEIKR", "values": [{"measurement": "EC50", "setting": "TEM8 on TEM8过表达细胞 [3]", "value": 0.13, "unit": "µg/mL"}, {"measurement": "EC50", "setting": "重组TEM8蛋白(义翘神州) [4]", "value": 0.00453, "unit": "µg/mL"}]}]}
